Test results taken from patent publication US20220298237A1 (KEIO UNIVERSITY, published 2022).

Key:
[1] = molecular target: T1, oligopeptide ATYPSGHLDM (SEQ ID NO: 1) (human and mouse); assay: ELISA on the immunogen peptide (FIG. 2)
T1 construct: Synthetic peptide; positions 148 to 157 of the human AQP3 polypeptide, identical in mouse; also called peptide used for immunization; oligopeptide 5
T1 peptide: ATYPSGHLDM

[2] = molecular target: T2, human aquaporin 3 (AQP3) on cells (human, UniProt Q92482 1-292); assay: flow cytometry on HaCaT cells, 10 µg/mL (FIG. 6A)
T2 construct: whole, on cells; Water channel membrane protein; also called human AQP3; AQP3 on HaCaT cells
T2 sequence (looked up): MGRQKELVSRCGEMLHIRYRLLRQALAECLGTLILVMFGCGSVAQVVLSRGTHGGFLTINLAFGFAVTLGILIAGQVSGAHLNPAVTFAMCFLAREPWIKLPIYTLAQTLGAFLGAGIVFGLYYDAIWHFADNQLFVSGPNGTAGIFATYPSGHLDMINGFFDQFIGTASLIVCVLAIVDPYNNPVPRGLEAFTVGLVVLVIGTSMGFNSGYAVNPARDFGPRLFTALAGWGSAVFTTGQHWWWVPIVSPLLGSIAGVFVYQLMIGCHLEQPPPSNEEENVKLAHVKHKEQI
Method: HaCaT cells were treated with Cell Dissociation Buffer for 30 minutes at 37° C., and then dislodged and collected. Then, the cells were reacted with 10 μg/mL anti AQP3 antibody at 4° C. for 1 hour. After washing the cells, a fluorescent-labeled secondary antibody was added and the reaction was allowed to occur additionally for 1 hour (4° C.). Then, by using a flow cytometer, fluorescence intensity was measured (FIG. 6A to FIG. 6C). FIG. 6A represents the result of a case in which antibody G was used, FIG. 6B represents the result of a case in which antibody H was used, and FIG. 6C represents the result of a case in which antibody J was used. […] The histogram expressed with bold line represents a case in which the anti AQP3 antibody was used while the histogram expressed with thin dotted line represents a case as a control in which the anti AQP3 antibody was not used (addition of non-specific IgG). […] Ratio (%) of the cells included in this range (=cells showing positive staining by anti AQP3 antibody) is also shown in the drawing.

[3] = molecular target: T3, mouse aquaporin 3 (AQP3) on cells (mouse, UniProt Q8R2N1 1-292); assay: fluorescence binding assay on PAM212 cells, 10 µg/mL (FIG. 5B)
T3 construct: whole, on cells; Water channel membrane protein; also called mouse AQP3; AQP3 on PAM212 cells
T3 sequence (looked up): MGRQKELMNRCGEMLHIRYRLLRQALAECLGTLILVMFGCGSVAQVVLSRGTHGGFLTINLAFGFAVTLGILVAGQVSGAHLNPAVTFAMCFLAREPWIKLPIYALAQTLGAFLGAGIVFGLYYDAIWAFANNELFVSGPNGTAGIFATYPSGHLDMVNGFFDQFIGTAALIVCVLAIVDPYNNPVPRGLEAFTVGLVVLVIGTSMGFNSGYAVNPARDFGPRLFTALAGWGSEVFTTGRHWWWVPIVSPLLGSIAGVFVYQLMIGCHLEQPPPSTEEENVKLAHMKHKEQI
Method: PAM212 and macrophage cells were reacted with each anti AQP3 antibody (0.1, 1, or 10 μg/mL) at 4° C. for 1 hour. After washing the cells, a fluorescent-labeled secondary antibody was added and the reaction was allowed to occur additionally for 1 hour (4° C.). By measuring the fluorescence intensity, the binding property of each anti AQP3 antibody to cells was obtained.
The assay was also performed using PAM212 cells and antibodies A, B, C, D, E, F, G, H, and J at a concentration of 10 μg/mL. Binding of antibodies C, D, E, G, and J to PAM212 cells was statistically significant.

[4] = molecular target: T4, mouse AQP3 in lysate of HEK293T cells overexpressing mouse AQP3 and a myc-biotinylated tag (mouse, UniProt Q8R2N1 1-292); assay: ELISA on lysate of HEK293T cells overexpressing mouse AQP3 (FIG. 3)
T4 construct: Cell lysate used in ELISA; also called AQP3 containing cell lysate; not shown: myc-biotinylated tag
T4 sequence (looked up): T3 sequence (looked up)
From the text: Cell lysate from HEK293T cells overexpressing mouse AQP3 and a myc-biotinylated tag was used in an ELISA assay to measure the binding of antibodies A, B, C, D, E, F, G, H, J, and K to AQP3. Cell lysate from HEK293T cells overexpressing the myc-biotinylated tag but not AQP3 was used as control. […] C. Antibody binding to AQP3 expressing cells

[5] = molecular target: T2, human aquaporin 3 (AQP3) on cells; assay: fluorescence binding assay on HaCaT cells, 10 µg/mL (FIG. 5C)
[6] = molecular target: T3, mouse aquaporin 3 (AQP3) on cells; assay: FACS on HEK293 cells stably overexpressing mouse AQP3, 10 µg/mL
Method: A FACS assay was also performed using HEK293 cells stably overexpressing mouse AQP3. Cells were incubated with antibody E, H, J, or negative control IgG at a concentration of 10 μg/mL for one hour and then sorted by FACS. Separately, HEK293 cells stably overexpressing human AQP3 were incubated with antibody E at a concentration of 10 μg/mL for one hour and then sorted by FACS.

Measured: binding result

B1: Antibody G (antibody, mouse IgG2a, kappa, V domains shown)
VH: QVQLKQSGAELVRPGASVTLSCKASGYTFTDYEMHWVKQTPVHGLEWIGGIDPETGGTAYNQKFKGKAILTADKSSSTAYMELRSLTSEDSAVYYCTRWGAITSFVALRGFAYWGQGTLVTVSS
VL: DIQMTQSPSSLSVSAGEKVTMSCKSSQSLLNSGNQKNYLAWYQQKPGQPPKLLIYGASTRESGVPDRFTGSGSGTDFTLTISSVQAEDLAVYYCQNDHSYPPTFGAGTKLELKR
notes: also called anti AQP3 antibody G; Antiboy G
binds: [1] | [2] | [3] | [4]

B2: Antibody H (antibody, mouse IgG2a, kappa, V domains shown)
VH: EVKLVESGGDLVKPGGSLKLSCAASGFTFSSYGMSWVRQTPDKRLEWVATISRRSIYTYYPDSVQGRFTISRDNAKNTLYLQMSSLKSEDTAMYYCARLSLYDYDGARYTMDYWGQGTSVTVSS
VL: DIKMTQSPKFMSTSVGDRVSITCKASQDVGTAVAWYQQKPGQSPKLLIYWASTRHTGVPDRFTGSGSGTDFTLTISNVQSEDLADYFCQQYSSYHTFGAGTKLEIKR
notes: also called anti AQP3 antibody H
binds: [1] | [5] | [6] | [4]
